Results reported in paper PMC11103110.

Assays:
[1] = target: Lotus japonicus phytoglobin LjGlb3-1, recombinant (Lotus japonicus) (UniProt P0DO64); assay: SDS-PAGE under non-reducing conditions with Coomassie staining and immunoblot; recombinant protein (20 μM in the methods, 10 μM in the legend) untreated, with 500 μM DTT or with 200–500 μM H2O2, 1 h, 50 mM KPi pH 7.4; 15% SDS-PAGE; DTT made the dimer almost totally disappear, H2O2 caused partial dimerization
[2] = target: Lotus japonicus phytoglobin LjGlb3-1, recombinant (Lotus japonicus) (UniProt P0DO64); assay: SDS-PAGE with immunoblot (anti-NO2-Tyr and protein-specific antibodies); recombinant protein (20 μM in the methods, 5–10 μM in the legend) incubated with 500 μM SIN-1 (peroxynitrite generator) for 2 h at 30 °C in 50 mM KPi pH 7.4; 15% SDS-PAGE

stoichiometry N [1]: 2 | stoichiometry N [2]: 2
Substance: Lotus japonicus phytoglobin LjGlb3-1, recombinant (from UniProt P0DO64 1-168) (natural protein)
